Laboratory results taken from patent publication US20140342037A1, “NOVEL PREBIOTICS” (DSM IP ASSETS B.V., priority 2007, published 2014).

B1: sialidase ZJW: secreted fungal sialidase from Penicillium chrysogenum (SEQ ID NO: 3), overexpressed in Aspergillus niger (protein, listed as Penicillium chrysogenum)
chain: MLSSLMYLARECSILRAISLCAILAVATPAASASVTAKHTLATNGKGLFPQYRIVALASLGNGVLLASYDGRPDGGDSPSPNSILQRRSTDGGKTWGNPTYIARGQPASSTLQQYGFSDPSYVVDSGTGKVFNFHVFSKNQGFLNSEIGNDDTDLNIVSAEVSVSTDGGLSWTTDPDHESSLPPVASADVANVGGITGMFASSGEGIQLKYGKHAGRLVQQFLGKVIQSDGSKVSQAYSVYSDDGGAIWKMGKVIGTGMDENKVVELSNGNLMLNSRPSDGSGYRKVATSTDGGETWSTPASETQLPDPGNNGAITRMYPDAAHGSANAKILLFTNANSKTSRSNGTIRYSCDDGKTWSSGAVFQSGSMSYSTVTALGDDRFGIFYEGDSNDLVYIEVSKDFIGVSC

Columns and labels:
[1] = cited from earlier work
[2] = tested on: κ-casein in milk and GMP-protein in whey; experiment: Liberation of free sialic acid from milk and whey by sialidase (RP-HPLC, DMB labelling); type: biochemical; details: milk and whey incubated with sialidase ZJW 0.4 U/ml at room temperature (20-21° C.)
Excerpt: Free sialic acid can be analyzed by means of reverse-phase HPLC, using fluorescence detection with excitation at 310 nm and emission 448 nm after labelling with DMB compound. This method was recently described in literature (M. J. Martin et al Anal. Bional. Chem., 2007, 387, 2943-29-49) and allowed fast and accurate determination of free sialic contents in samples.
Milk was reconstituted by using NILAC low heat skim milk powder (NIZO, The Netherlands); whey was obtained from a local cheddar making facility. The milk and whey samples were treated as follows: milk and whey was incubated separately with sialidase ZJW (0.4 U/ml) at room temperature (20-21° C.) and the reaction was terminated at different moments of time by heating the samples in water bath at 95° C. for 5 minutes. A series of several sialidase ZJW concentrations and incubation times were performed. The samples used for HPLC analysis need to be free from proteins. Therefore, samples were filtered with a Nanosep ultra filtration Eppendorff (10 KD) using centrifugation for 15 minutes at 14000 g. After centrifugation, the free protein supernatant was collected and diluted 100 times with milliQ water in order to measure the sialic acid in a proper range of concentrations (measuring range using RP HPLC method is 5 fmol-5 nmol of sialic acid). […]

[3] = Proteolytic (endo-protease) activity on substrates ZAAXpNA; type: biochemical; details: purified enzyme preparation

Molecule	pKa [1]	free sialic acid levels (concentration) ([2]; after 4 hours)	levels of free sialic acid ([2]; after 20 hours of incubation) [mg/L]	proteolytic activity on a series of substrates ZAAXpNA [3]
CC(=O)N[C@H]1[C@H]([C@H](O)[C@H](O)CO)OC(O)(C(=O)O)C[C@@H]1O (stereo partly shown) [Sialic acids, N-acetylneuraminic acid]	around 2.2			
B1		approximately 220 mg/L	250	does not show proteolytic activity
